Measurements: patent publication US8173131B2, “Compositions and methods for modulating RSV infection and immunity” (PerkinElmer Health Sciences, Inc., priority 2000, dated 2012)
Like-named read-outs stand apart in the source and are kept apart here.

How the values were obtained:
[1] = target: T1, CX3CR1 (293-CX3CR1 cells) (Homo sapiens, UniProt P49238); assay: G glycoprotein and Fkn binding to 293-CX3CR1 cells by flow cytometry; details: for percent positive staining of CX3CR1-293 cells: representative experiment, FIG. 1
T1 construct: expressed in transfected cells
T1 sequence (P49238 1-355): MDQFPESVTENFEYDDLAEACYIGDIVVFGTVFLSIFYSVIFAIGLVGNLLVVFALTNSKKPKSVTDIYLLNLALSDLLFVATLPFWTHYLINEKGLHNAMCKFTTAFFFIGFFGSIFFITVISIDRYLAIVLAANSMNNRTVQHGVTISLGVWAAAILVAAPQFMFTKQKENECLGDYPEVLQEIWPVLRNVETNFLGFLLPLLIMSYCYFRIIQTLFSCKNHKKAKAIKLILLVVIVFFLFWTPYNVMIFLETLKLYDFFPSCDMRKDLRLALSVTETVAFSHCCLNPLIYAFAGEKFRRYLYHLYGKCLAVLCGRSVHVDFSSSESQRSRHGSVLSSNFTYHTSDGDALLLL
Protocol: (§1) Purified G glycoprotein was examined for binding to 293-CX3CR1 cells^33. A pcDNA 3.1 plasmid containing the CX3CR1 gene and a neomycin resistance gene was used to stably transfect human embryonic kidney (HEK) cells. Neomycin resistance was used for selection and maintenance of plasmid transfection of human embryonic kidney cells.
All binding studies were done on ice and either G glycoprotein or human Fkn (R&D Diagnostics, Minneapolis, […]) containing 1% bovine serum albumin (Sigma) and incubated with the 293-CX3CR1 cells or 293 control cells for 30 min at 4° C. […] For inhibition studies, 100 pM-1 μM human Fkn or G glycoprotein was preincubated with the cells for 30 min at 4° C. Without washing, 100 pM of either Fkn or G glycoprotein was added and incubated for 30 min at 4° C. The cells were washed, blocked with FcγRIII blocking antibody (HB197) for 30 min on ice, washed and stained as appropriate with either an anti-G glycoprotein monoclonal antibody cocktail (132-5B, 132-5G, 130-2G, 232-IF) or a biotinylated anti-G glycoprotein monoclonal antibody cocktail (130-2G, 131-2G) or anti-Fkn monoclonal antibody (51637.11; R&D Diagnostics). Concentrations of 1 μg of anti-G glycoprotein monoclonal antibody (131-2G)^34, rabbit anti-CX3CR1 sera^33, and anti-CX3CR1 monoclonal antibody containing 10 μg/ml heparin were used in all experiments. […] Staining was detected with absorbed FITC-goat anti-mouse (H & L chain) monoclonal antibody (PharMingen, San Diego, Calif.) or streptavidin-PE (PharMingen) using flow cytometry (FACScan, Becton-Dickinson, Mountain View, Calif.). A 76 amino acid ^125I-Fkn polypeptide comprising the […] (NEN, Boston, Mass.) was used in radioligand studies^33. As a control, the void volume following purified G glycoprotein passaged over an anti-G glycoprotein antibody (130-2G) affinity column was examined by flow cytometry for binding to either 293 or 293-CX3CR1 cells.
(§2) The receptor for Fkn, CX3CR1, was previously identified and characterized using anti-CX3CR1 rabbit antiserum and CX3CR1-transfected human embryonic kidney cells (293-CX3CR1 cells)^33.
The percent Fkn-maximum binding was calculated using the equation: [% G (or Fkn) 293-CX3CR1]-[% G (or Fkn) 293]/[% Fkn (10 nM) 293-CX3CR1]-[% Fkn (10 nM) 293], where G=G glycoprotein, Fkn=fractalkine, 293-CX3CR1=CX3CR1-transfected 293, 293=untransfected 293. The concentration of G glycoprotein was estimated using a molecular weight of 90 kD.

[2] = system: 293 cells; assay: G glycoprotein and Fkn binding to untransfected 293 control cells by flow cytometry; parameters: species or system human; details: for percent positive staining of 293 cells: 10 nM ligand, representative experiment, FIG. 1
Protocol: as §1
All binding studies were done on ice and either G glycoprotein or human Fkn (R&D Diagnostics, Minneapolis, Minn.) were diluted between 1 nM-100 nM in PBS (GIBCO) containing 1% bovine serum albumin (Sigma) and incubated with the 293-CX3CR1 cells or 293 control cells for 30 min at 4° C. […] For inhibition studies, 100 pM-1 μM human Fkn or G glycoprotein was preincubated with the cells for 30 min at 4° C. Without washing, 100 pM of either Fkn or G glycoprotein was added and incubated for 30 min at 4° C. The cells were washed, blocked with FcγRIII blocking antibody (HB197) for 30 min on ice, washed and stained as appropriate with either an anti-G glycoprotein monoclonal antibody cocktail (132-5B, 132-5G, 130-2G, 232-IF) or a biotinylated anti-G glycoprotein monoclonal antibody cocktail (130-2G, 131-2G) or anti-Fkn monoclonal antibody (51637.11; R&D Diagnostics). Concentrations of 1 μg of anti-G glycoprotein monoclonal antibody (131-2G)^34, rabbit anti-CX3CR1 sera^33, and anti-CX3CR1 monoclonal antibody containing 10 μg/ml heparin were used in all experiments. […] Staining was detected with absorbed FITC-goat anti-mouse (H & L chain) monoclonal antibody (PharMingen, San Diego, Calif.) or streptavidin-PE (PharMingen) using flow cytometry (FACScan, Becton-Dickinson, Mountain View, Calif.). A 76 amino acid ^125I-Fkn polypeptide comprising the […] (NEN, Boston, Mass.) was used in radioligand studies^33. As a control, the void volume following purified G glycoprotein passaged over an anti-G glycoprotein antibody (130-2G) affinity column was examined by flow cytometry for binding to either 293 or 293-CX3CR1 cells.
as §2

[3] = target: T2, Fkn binding to 293-CX3CR1 cells (Homo sapiens, UniProt P49238)
T2 construct: host or cells: HEK 293 cells stably transfected with CX3CR1

[4] = 10 nM ligand, 293-CX3CR1 minus 293 binding relative to 10 nM Fkn
[5] = wheat germ lectin column fraction (G, F glycoprotein) or purified recombinant polyhistidine-tagged G glycoprotein

## Fkn: CX3C chemokine fractalkine (R&D), ligand of CX3CR1 [reference compound]
[1]; 10 pM ligand
  Fkn-Maximum Binding (%): 46%
[1]; 100 pM ligand
  Fkn-Maximum Binding (%): 98%
[1]; 1 nM ligand
  Fkn-Maximum Binding (%): 99%
[1]; [4]
  Fkn-Maximum Binding (%): 98%
[1]; 10 nM ligand
  percent positive staining of CX3CR1-293 cells: 88%
[1]; 30 min at 4° C.
  concentration saturating 293-CX3CR1 binding: 1 to 10 nM
[2]
  percent positive staining of 293 cells: 8%

## TCWAICKRIPNK [RT33]
[3]; heparin 5 μg/ml + peptide 1 μM
  Range of Inhibition (%) of Fkn binding: 70-80%

B1: G glycoprotein: purified G glycoprotein isolated from RSV/A2-infected Vero cells (protein)
chain: MSKNKDQRTAKTLERTWDTLNHLLFISSCLYKLNLKSVAQITLSILAMIISTSLIIAAIIFIASANHKVTPTTAIIQDATSQIKNTTPTYLTQNPQLGISPSNPSEITSQITTILASTTPGVKSTLQSTTVKTKNTTTTQTQPSKPTTKQRQNKPPSKPNNDFHFEVFNFVPCSICSNNPTCWAICKRIPNKKPGKKTTTKPTKKPTLKTTKKDPKPQTTKSKEVPTTKPTEEPTINTTKTNIITTLLTSNTTGNPELTSQMETFHSTSSEGNPSPSQVSTTSEYPSQPSSPPNTPRQ
[1]; 10 pM ligand
  Fkn-Maximum Binding (%): 40%
[1]; 100 pM ligand
  Fkn-Maximum Binding (%): 80%
[1]; 1 nM ligand
  Fkn-Maximum Binding (%): 87%
[1]; [4]
  Fkn-Maximum Binding (%): 88%
[1]; 10 nM ligand
  percent positive staining of CX3CR1-293 cells: 84%
[1]; [5]
  binding to 293-CX3CR1 cells: 70%
[2]
  percent positive staining of 293 cells: 16%
[2]; [5]
  binding to 293 cells: 18%
[3]; heparin 5 μg/ml + G glycoprotein 10 nM
  Range of Inhibition (%) of Fkn binding: 80-85%
